Measurements from patent publication US9399663B2, “Competitive inhibitor of GP120” (priority 2014, dated 2016).
“And” between values parts separate entries of the source, which are not always exact repeats. Equal values may be shown once. Read-outs that look alike come from different tables or passages of the source.

Assays:
recombinant TUBB3 = molecular target: T1, recombinant TUBB3 (Homo sapiens, UniProt Q13509); assay: SPR (BIACORE T200) binding to immobilized TUBB3; details: for Kd: Ligand: TUBB3
T1 construct: purchased MyBioSource, San Diego, Calif
T1 sequence (Q13509 whole entry): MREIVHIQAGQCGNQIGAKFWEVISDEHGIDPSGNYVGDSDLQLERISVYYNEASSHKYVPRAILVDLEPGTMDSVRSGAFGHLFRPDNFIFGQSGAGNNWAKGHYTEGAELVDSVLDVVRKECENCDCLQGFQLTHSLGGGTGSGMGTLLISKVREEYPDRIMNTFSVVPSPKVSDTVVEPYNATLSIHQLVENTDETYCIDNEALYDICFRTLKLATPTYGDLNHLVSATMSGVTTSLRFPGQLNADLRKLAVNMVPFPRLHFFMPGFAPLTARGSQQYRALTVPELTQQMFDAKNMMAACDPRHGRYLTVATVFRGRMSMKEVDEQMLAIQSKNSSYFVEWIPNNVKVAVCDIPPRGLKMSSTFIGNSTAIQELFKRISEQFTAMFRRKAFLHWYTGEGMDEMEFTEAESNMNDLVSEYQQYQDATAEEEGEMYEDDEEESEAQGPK
Method: (§1) Surface plasmon resonance (SPR). BIACORE® T200™ was used to determine the kinetic parameters for the binding of recombinant TUBB3, tubulin dimer, and assembled microtubules (ligands) to the various isoforms of gp120 or related peptides (analytes). Recombinant TUBB3, tubulin dimer, and assembled MTs were covalently attached to different flow cells of a carboxymethyldextran (CM5) sensor chip by amine coupling. The chip surface was activated for 720 sec at 10 μL/min with of 1:1 mixture of 0.1 M N-Hydroxysuccinimide (NHS) and 0.5 M 1-Ethyl-3-(-3-dimethylaminopropyl)-carbodiimide hydrochloride (EDC). […] After ligand capture, the surfaces were deactivated by injecting 1 M ethanolamine for 720 sec at 10 μL/min. HBS-P (10 mM HEPES, pH7.4, 150 mM NaCl, 0.05% P-20) with 2 mM MgCl2 used as the running buffer. Flow cell 1 on each chip was left empty and used for reference surface. […] Kinetic studies were performed by injecting different concentrations of the analytes in triplicate. The chip surface was regenerated by with 10 mM glycine pH 1.5 injected for 30 sec at a flow rate of 100 μL/min. Each sample was injected for 60 sec (contact time) followed by a dissociation time of 300 sec at a flow rate of 100 μL/min. Data was analyzed with BIACORE® T200™ Evaluation Software (version 1) to determine the equilibrium dissociation constant (KD) from a 1:1 binding model. Binding studies with peptides Helix A and Helix B were done in the same way as described above. Kinetic studies were performed by injecting different concentrations (20 μM, 10 μM, 5 μM, 2.5 μM, 1.25 μM and 0.625 μM) of Helix A and Helix B. Competition experiments with Helix A and Helix B were performed by mixing 100 nM gp120 isoforms with 10 μM of each peptide and injecting over the sensorchip surface.
(§2) Recombinant TUBB3, tubulin dimer, and assembled MTs from bovine brains were immobilized on a BIACORE® CM5 chip by amine coupling. Different concentrations of gp120s (from 3.13 to 100 nM) were injected over the surface in triplicates in each experiment. The kinetics of interaction was analyzed using a BIACORE® T200™ instrument. BiaEvaluation software was used to calculate binding affinities based on 1:1 binding model.

tubulin dimer = assay: SPR (BIACORE T200) binding to immobilized tubulin dimer; design: species or system Porcine
Method: as §1
as §2, with “BiaEvaluation software was used to calculate binding affinities based on 1:1 binding model.” left out

assembled MTs = assay: SPR (BIACORE T200) binding to immobilized assembled microtubules; design: species or system Porcine
Method: Surface plasmon resonance (SPR). BIACORE® T200™ was used to determine the kinetic parameters for the binding of recombinant TUBB3, tubulin dimer, and assembled microtubules (ligands) to the various isoforms of gp120 or related peptides (analytes). Recombinant TUBB3, tubulin dimer, and assembled MTs were covalently attached to different flow cells of a carboxymethyldextran (CM5) sensor chip by amine coupling. The chip surface was activated for 720 sec at 10 μL/min with of 1:1 mixture of 0.1 M N-Hydroxysuccinimide (NHS) and 0.5 M 1-Ethyl-3-(-3-dimethylaminopropyl)-carbodiimide hydrochloride (EDC). […] After ligand capture, the surfaces were deactivated by injecting 1 M ethanolamine for 720 sec at 10 μL/min. HBS-P (10 mM HEPES, pH7.4, 150 mM NaCl, 0.05% P-20) with 2 mM MgCl2 used as the running buffer. Flow cell 1 on each chip was left empty and used for reference surface. TUBB3 (1040 RU), tubulin dimer (2086 RU), and assembled MTs (990 RU) were captured on the remaining 3 flow cells. Kinetic studies were performed by injecting different concentrations of the analytes in triplicate. The chip surface was regenerated by with 10 mM glycine pH 1.5 injected for 30 sec at a flow rate of 100 μL/min. Each sample was injected for 60 sec (contact time) followed by a dissociation time of 300 sec at a flow rate of 100 μL/min. Data was analyzed with BIACORE® T200™ Evaluation Software (version 1) to determine the equilibrium dissociation constant (KD) from a 1:1 binding model. Binding studies with peptides Helix A and Helix B were done in the same way as described above. Kinetic studies were performed by injecting different concentrations (20 μM, 10 μM, 5 μM, 2.5 μM, 1.25 μM and 0.625 μM) of Helix A and Helix B. Competition experiments with Helix A and Helix B were performed by mixing 100 nM gp120 isoforms with 10 μM of each peptide and injecting over the sensorchip surface.
Recombinant TUBB3, tubulin dimer, and assembled MTs from bovine brains were immobilized on a BIACORE® CM5 chip by amine coupling. […] The kinetics of interaction was analyzed using a BIACORE® T200™ instrument. […]

tubulin β-3 (TUBB3) = molecular target: T2, tubulin β-3 (TUBB3) (Rattus norvegicus, UniProt Q4QRB4); assay: LC-MS/MS of gp120 immunocomplex from lysates of gp120-treated neurons; type: binding; details: anti-gp120 immunoprecipitation
T2 construct: Neurons exposed to gp120IIIB were lysated in RIPA buffer; endogenous in cells; host or cells: primary cortical neurons from embryonic (E17-18) Sprague Dawley rats
T2 sequence (P68370 whole entry): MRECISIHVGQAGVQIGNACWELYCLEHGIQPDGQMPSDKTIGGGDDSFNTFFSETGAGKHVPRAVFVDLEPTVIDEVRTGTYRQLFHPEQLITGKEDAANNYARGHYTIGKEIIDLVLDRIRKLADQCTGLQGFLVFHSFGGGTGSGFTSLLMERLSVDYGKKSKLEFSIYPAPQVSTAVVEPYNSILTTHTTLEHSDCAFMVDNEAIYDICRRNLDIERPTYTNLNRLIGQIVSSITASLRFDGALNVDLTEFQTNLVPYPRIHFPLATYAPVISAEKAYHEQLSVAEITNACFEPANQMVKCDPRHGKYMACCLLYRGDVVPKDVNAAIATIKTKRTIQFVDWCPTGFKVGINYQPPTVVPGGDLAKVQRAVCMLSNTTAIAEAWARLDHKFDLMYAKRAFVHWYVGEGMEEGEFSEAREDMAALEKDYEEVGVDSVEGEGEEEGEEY
T2 sequence (Q4QRB4 whole entry): as the sequence (Q13509 whole entry) above, with E441D counted along it
Method: LC-MS/MS analysis identifies tubulin β-3 (TUBB3) as an interactor of gp120IIIB Top panel: Chromatogram of the whole data set of gp120 interactors. In orange is indicated the peak (retention time=46.45 minutes) associated to peptide ^337[…]^350 (SEQ ID NO: 15) of TUBB3. Bottom panel: The fragmentation spectrum of peptide of TUBB3 is shown to identify TUBB3 among gp120IIIB interactors. The series of y sequence coverage is highlighted.
Liquid chomatography-mass spectrometry (LC-MS/MS): Neurons exposed to gp120IIIB were lysated in RIPA buffer with protease and phosphatase inhibitors (THERMO FISHER […]®) at 4° C. and then incubated with mouse anti-gp120 antibody. Gp120 complex of interacting proteins was eluted from immobilized protein A beads, reduced, alkylated and digested with trypsin. The tryptic digests were analyzed by mass spectrometry, using a LTQ ORBITRAP XL™ hybrid FTMS (Fourier transform mass spectrometer) (THERMO FISHER […]®). Peptide separation was performed with solvent A (0.1% HCOOH in H2O) and solvent B (0.1% formic acid in ACN), using the following gradient: from 5% B for 1 minute to 60% B in 70 minutes. Peptides were analyzed using a precursor mass range of 300-5000 Da. MS/MS analyses were used to query a non-redundant protein database (rat.fasta) using the software SEQUEST™. […]

[1] = 100 nM gp120 alone, 60 sec injection

## gp120IIIB: HIV envelope protein gp120, strain IIIB, purchased from Immunodiagnostics
Recombinant TUBB3; [1]
  SPR response (2-1) RU, Fc2: Tubulin β-3 1092 RU: 35 RU and 44 RU
Recombinant TUBB3; mean of two independent experiments, read-out: Mean KD
  Kd: 7.5 nM
Recombinant TUBB3; single experiment, gp120 3.13 to 100 nM, 1:1 binding model, read-out: KD
  Kd: 7.91 nM and 7.05 nM
Tubulin dimer; [1]
  SPR response (3-1) RU, Fc3: Tubulin Dimer 1900 RU: 21 RU and 14 RU and 18.6 RU
Tubulin dimer; Ligand: Tubulin Dimer, mean of two independent experiments
  Kd: 12.3 nM
Assembled MTs; [1]
  SPR response (4-1) RU, Fc4: Microtubules 970 RU: 19 RU and 15 RU and 23.2 RU
Assembled MTs; Ligand: Assembled MTs, mean of two independent experiments
  Kd: 10 nM
Tubulin β-3 (TUBB3)
  TUBB3 identified among gp120 interactors (LC-MS/MS): interactor
